We go through nine variants from PMC6283856 (2018).

B1: ubiquitin-specific peptidase 17 (USP17), wild type [not stated] / TNFR-associated factor 3 (TRAF3) [not stated] (parent complex)
chain 1: MEDDSLYLGGEWQFNHFSKLTSSRPDAAFAEIQRTSLPEKSPLSSEARVDLCDDLAPVARQLAPRKKLPLSSRRPAAVGAGLQNMGNTCYENASLQCLTYTPPLANYMLSREHSQTCQRPKCCMLCTMQAHITWALHSPGHVIQPSQALAAGFHRGKQEDAHEFLMFTVDAMKKACLPGHKQVDHHSKDTTLIHQIFGGCWRSQIKCLHCHGISDTFDPYLDIALDIQAAQSVKQALEQLVKPEELNGENAYHCGLCLQRAPASKTLTLHTSAKVLILVLKRFSDVTGNKLAKNVQYPECLDMQPYMSQQNTGPLVYVLYAVLVHAGWSCHDGHYFSYVKAQEGQWYKMDDAKVTACSITSVLSQQAYVLFYIQKSEWERHSESVSRGREPRALGAEDTDRRATQGELKRDHPCLQAPELDERLVERATQESTLDHWKFPQEQNKTKPEFNVRKVEGTLPPNVLVIHQSKYKCGMKNHHPEQQSSLLNLSSTTRTDQESVNTGTLASLQGRTRRSKGKNKHSKRALLVCQ
chain 2: MESSKKMDSPGALQTNPPLKLHTDRSAGTPVFVPEQGGYKEKFVKTVEDKYKCEKCHLVLCSPKQTECGHRFCESCMAALLSSSSPKCTACQESIVKDKVFKDNCCKREILALQIYCRNESRGCAEQLMLGHLLVHLKNDCHFEELPCVRPDCKEKVLRKDLRDHVEKACKYREATCSHCKSQVPMIALQKHEDTDCPCVVVSCPHKCSVQTLLRSELSAHLSECVNAPSTCSFKRYGCVFQGTNQQIKAHEASSAVQHVNLLKEWSNSLEKKVSLLQNESVEKNKSIQSLHNQICSFEIEIERQKEMLRNNESKILHLQRVIDSQAEKLKELDKEIRPFRQNWEEADSMKSSVESLQNRVTELESVDKSAGQVARNTGLLESQLSRHDQMLSVHDIRLADMDLRFQVLETASYNGVLIWKIRDYKRRKQEAVMGKTLSLYSQPFYTGYFGYKMCARVYLNGDGMGKGTHLSLFFVIMRGEYDALLPWPFKQKVTLMLMDQGSSRRHLGDAFKPDPNSSSFKKPTGEMNIASGCPVFVAQTVLENGTYIKDDTIFIKVIVDTSDLPDP
B2: ubiquitin-specific peptidase 17 (USP17), wild type [not stated] / TNFR-associated factor 2 (TRAF2) [not stated] (parent complex)
chain 1: B1 chain 1
chain 2: MAAASVTPPGSLELLQPGFSKTLLGTKLEAKYLCSACRNVLRRPFQAQCGHRYCSFCLASILSSGPQNCAACVHEGIYEEGISILESSSAFPDNAARREVESLPAVCPSDGCTWKGTLKEYESCHEGRCPLMLTECPACKGLVRLGEKERHLEHECPERSLSCRHCRAPCCGADVKAHHEVCPKFPLTCDGCGKKKIPREKFQDHVKTCGKCRVPCRFHAIGCLETVEGEKQQEHEVQWLREHLAMLLSSVLEAKPLLGDQSHAGSELLQRCESLEKKTATFENIVCVLNREVERVAMTAEACSRQHRLDQDKIEALSSKVQQLERSIGLKDLAMADLEQKVLEMEASTYDGVFIWKISDFARKRQEAVAGRIPAIFSPAFYTSRYGYKMCLRIYLNGDGTGRGTHLSLFFVVMKGPNDALLRWPFNQKVTLMLLDQNNREHVIDAFRPDVTSSSFQRPVNDMNIASGCPLFCPVSKMEAKNSYVRDDAIFIKAIVDLTGL

Variants of B1 are the subject of the first assay. Put plainly: co-immunoprecipitation (IP: Myc, IB: Flag) with band quantification; coexpressed in HEK293 cells; parent: 100; read off a plot.
On to chain 1 Q482R, for which the percent of parent is roughly 30%. On to chain 1 P480L, for which the percent of parent is roughly 68%.

With chain 1 S484L, the percent of parent is roughly 38%.

In a further assay the parent is B2. The assay is described as above.
Take chain 1 Q430A: the percent of parent is roughly 33%. Turning to chain 1 P480L, the percent of parent is roughly 68%.

With chain 1 E431A, the percent of parent was roughly 29%. On the same count and under the same terms, the figure for chain 1 A428V is roughly 79%; for chain 1 S484L it is roughly 40%; for chain 1 Q482R it is roughly 37%.
